Laboratory results as given in patent US20180155451A1 (published 2018).
Changes are numbered by the printed parent chain.

T1: FcγRIIa H (human, UniProt P12318 34-217)
T1 construct: extracellular domain; Soluble extracellular domain with C-terminal His tag, expressed in FreeStyle293 cells; also called FcgRIIa H; 2aH; not shown: C-terminal His tag
T1 sequence (looked up): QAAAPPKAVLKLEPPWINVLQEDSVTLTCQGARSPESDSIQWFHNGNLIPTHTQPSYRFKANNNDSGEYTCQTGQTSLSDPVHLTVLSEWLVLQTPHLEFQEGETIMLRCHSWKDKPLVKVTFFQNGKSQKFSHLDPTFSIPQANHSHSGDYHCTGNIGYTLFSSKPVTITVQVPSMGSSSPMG

T2: FcγRIIb (human, UniProt P31994 43-217)
T2 construct: extracellular domain; Soluble extracellular domain with C-terminal His tag, expressed in FreeStyle293 cells; also called FcgRIIb; 2b; not shown: C-terminal His tag
T2 sequence (looked up): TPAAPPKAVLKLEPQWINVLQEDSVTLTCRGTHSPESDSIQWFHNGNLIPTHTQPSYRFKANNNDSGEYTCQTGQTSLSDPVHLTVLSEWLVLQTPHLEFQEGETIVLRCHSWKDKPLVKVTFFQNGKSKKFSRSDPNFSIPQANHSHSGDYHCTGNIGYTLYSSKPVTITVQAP

T3: FcγRIIa R (human, UniProt P12318 34-217)
T3 construct: extracellular domain; also called FcgRIIa R; FcγRIIa type R
T3 sequence (looked up): T1 sequence (looked up) with H134R

T4: FcγRIIb (human, UniProt P31994 43-217)
T4 construct: extracellular domain; also called FcgRIIb
T4 sequence (looked up): T2 sequence (looked up)

B1: GpH7-A5/GpH7-B3 variant S267_01G/GpL16-k0 (antibody, human IgG1, kappa)
heavy 1: not shown
heavy 2: not shown
light: DIVMTQSPLSLPVTPGEPASISCQASESLVHSNRNTYLHWYLQKPGQSPQLLIYKVSNRFSGVPDRFSGSGSGTDFTLKISRVEAEDVGVYYCSQNTHVPPTFGQGTKVEIERTVAAPSVFIFPPSDEQLKSGTASVVCLLNNFYPREAKVQWKVDNALQSGNSQESVTEQDSKDSTYSLSSTLTLSKADYEKHKVYACEVTHQGLSSPVTKSFNRGEC
notes: Heterodimerized anti-glypican-3 IgG1; alteration in the GpH7-B3 chain only; also called He Ab
B2: GpH7-A5/GpH7-B3 variant S239_06M/GpL16-k0 (antibody, human IgG1, kappa)
heavy 1: not shown
heavy 2: not shown
light: B1 light
notes: as for B1
B3: GpH7-A5/GpH7-B3 variant N325_11K/GpL16-k0 (antibody, human IgG1, kappa)
heavy 1: not shown
heavy 2: not shown
light: B1 light
notes: He Ab; IgG1; mutation in one H chain only
B4: GpH7-A5/GpH7-B3 variant A330_14T/GpL16-k0 (antibody, human IgG1, kappa)
heavy 1: not shown
heavy 2: not shown
light: B1 light
notes: as for B3
B5: GpH7-A5/GpH7-B3 variant A330_13S/GpL16-k0 (antibody, human IgG1, kappa)
heavy 1: not shown
heavy 2: not shown
light: B1 light
notes: as for B3
B6: GpH7-A5/GpH7-B3 variant A330_08L/GpL16-k0 (antibody, human IgG1, kappa)
heavy 1: not shown
heavy 2: not shown
light: B1 light
notes: as for B3
B7: GpH7-A5/GpH7-B3 variant S239_07I/GpL16-k0 (antibody, human IgG1, kappa)
heavy 1: not shown
heavy 2: not shown
light: B1 light
notes: as for B1
B8: GpH7-A5/GpH7-B3 variant P329_03V/GpL16-k0 (antibody, human IgG1, kappa)
heavy 1: not shown
heavy 2: not shown
light: B1 light
notes: as for B3
B9: GpH7-A5/GpH7-B3 variant A330_07I/GpL16-k0 (antibody, human IgG1, kappa)
heavy 1: not shown
heavy 2: not shown
light: B1 light
notes: as for B3
B10: GpH7-A5/GpH7-B3 variant N325_02A/GpL16-k0 (antibody, human IgG1, kappa)
heavy 1: not shown
heavy 2: not shown
light: B1 light
notes: as for B3
B11: GpH7-A5/GpH7-B3 variant A330_12R/GpL16-k0 (antibody, human IgG1, kappa)
heavy 1: not shown
heavy 2: not shown
light: B1 light
notes: as for B3
B12: GpH7-A5/GpH7-B3 variant S267_07I/GpL16-k0 (antibody, human IgG1, kappa)
heavy 1: not shown
heavy 2: not shown
light: B1 light
notes: as for B1
B13: GpH7-A5/GpH7-B3 variant A330_18N/GpL16-k0 (antibody, human IgG1, kappa)
heavy 1: not shown
heavy 2: not shown
light: B1 light
notes: as for B3
B14: GpH7-A5/GpH7-B3 variant P329_15Y/GpL16-k0 (antibody, human IgG1, kappa)
heavy 1: not shown
heavy 2: not shown
light: B1 light
notes: as for B3
B15: GpH7-A5/GpH7-B3 variant P329_08L/GpL16-k0 (antibody, human IgG1, kappa)
heavy 1: not shown
heavy 2: not shown
light: B1 light
notes: as for B3
B16: GpH7-A5/GpH7-B3 variant P329_14T/GpL16-k0 (antibody, human IgG1, kappa)
heavy 1: not shown
heavy 2: not shown
light: B1 light
notes: as for B3
B17: GpH7-A5/GpH7-B3 variant A330_09D/GpL16-k0 (antibody, human IgG1, kappa)
heavy 1: not shown
heavy 2: not shown
light: B1 light
notes: as for B3
B18: GpH7-A5/GpH7-B3 variant P329_10E/GpL16-k0 (antibody, human IgG1, kappa)
heavy 1: not shown
heavy 2: not shown
light: B1 light
notes: He Ab; IgG1; mutation in one H chain only; also called GpH7-A5/GpH7-B15/GpL16-k0

Columns and labels:
FcγRIIa H = target: T1, FcγRIIa H; assay: SPR (Biacore), antibody captured, FcγR as analyte; relative to HeCon Ab
FcγRIIb [1] = target: T2, FcγRIIb; assay: as above
FcγRIIa R [2] = target: T3, FcγRIIa R; assay: He/Con_2aR divided by He/Con_2b (FcγRIIa R over FcγRIIb); SPR (Biacore)
FcγRIIa R [3] = target: T3, FcγRIIa R; assay: SPR (Biacore), captured antibody, FcγR analyte; binding relative to GpH7-A5/GpH7-B3/GpL16-k0 = 100
FcγRIIb [4] = target: T4, FcγRIIb; assay: as above

Row | Binder | He/Con_2aH (FcγRIIa H) | He/Con_2b (FcγRIIb [1]) | IIaR/IIb (He_2aR/2b) (FcγRIIa R [2]) [ratio] | He/Con_2aR (IIaR binding) (FcγRIIa R [3]) [control=100] | He/Con_2b (IIb binding) (FcγRIIb [4]) [control=100]
1 | B1 | 71.3 % of GpH7-A5/GpH7-B3/GpL16-k0 (=100) | 105 % of GpH7-A5/GpH7-B3/GpL16-k0 (=100) |  |  | 
2 | B2 | 98.6 % of GpH7-A5/GpH7-B3/GpL16-k0 (=100) | 101 % of GpH7-A5/GpH7-B3/GpL16-k0 (=100) |  |  | 
3 | B3 |  |  | 1.57 | 16.2 | 10.4
4 | B4 |  |  | 1.23 | 95.5 | 77.9
5 | B5 |  |  | 1.47 | 60.8 | 41.3
6 | B6 |  |  | 1.26 | 88.8 | 70.5
7 | B7 | 91.5 % of GpH7-A5/GpH7-B3/GpL16-k0 (=100) | 107 % of GpH7-A5/GpH7-B3/GpL16-k0 (=100) |  |  | 
8 | B8 |  |  | 1.4 | 53.8 | 38.5
9 | B9 |  |  | 1.27 | 85.6 | 67.1
10 | B10 |  |  | 1.31 | 84.1 | 64.4
11 | B11 |  |  | 1.22 | 104 | 84.8
12 | B12 | 34.7 % of GpH7-A5/GpH7-B3/GpL16-k0 (=100) | 192 % of GpH7-A5/GpH7-B3/GpL16-k0 (=100) |  |  | 
13 | B13 |  |  | 1.27 | 81.1 | 63.7
14 | B14 |  |  | 1.49 | 67.9 | 45.7
15 | B15 |  |  | 1.47 | 42.8 | 29.1
16 | B16 |  |  | 1.51 | 57.3 | 37.9
17 | B17 |  |  | 1.27 | 70.9 | 55.6
18 | B18 |  |  | 1.23 | 64.8 | 52.7
